From patent US20130116195A1, “Binding ligand linked drug delivery conjugates of tubulysins” (priority 2009, published 2013)
Entries after “also recorded” stand apart in the source; their conditions may differ.

Assays:
[1] = Toxicity as measured by weight loss; assay type: in vivo, mice; settings: for tolerability (percent weight change): FIG. 6, 3 μmol/kg TIW, female mice
Description: METHOD: Additional In vivo antitumor method. Four to six week-old female nu/nu mice (Charles River, Wilmington, Mass.) were maintained on a standard 12 h light-dark cycle and fed ad libitum with folate-deficient chow (Harlan diet #TD00434, Harlan Teklad, Madison, Wis.) for the duration of the experiment. KB cells (1×10^6 per nu/nu mouse) in 100 μL were injected in the subcutis of the dorsal medial area. Mice were divided into groups of five, and test articles were freshly prepared and injected through the lateral tail vein under sterile conditions in a volume of 200 μL of phosphate-buffered saline (PBS). Intravenous (i.v.) treatments were typically initiated on approximately 9 post-tumor cell implantation when the KB tumors were approximately 100-200 mm^3 in volume. The mice in the control groups received no treatment. Growth of each s.c. tumor was followed by measuring the tumor three times per week during treatment and twice per week thereafter until a volume of 1500 mm^3 was reached. Tumors were measured in two perpendicular directions using Vernier calipers, and their volumes were calculated as 0.5×L×W^2, where L=measurement of longest axis in mm and W=measurement of axis perpendicular to L in mm. As a general measure of toxicity, changes in body weights were determined on the same schedule as tumor volume measurements. Survival of animals was monitored daily. Animals that were moribund (or unable to reach food or water) were euthanized by CO2 asphyxiation. All in vivo studies were performed in accordance with the American Accreditation Association of Laboratory Animal Care guidelines.
METHOD: Toxicity as Measured by Weight Loss. The percentage weight change of the mice was determined in mice (5 mice/group) on selected days post-tumor inoculation (PTI), and graphed.

[2] = tested on: folate receptor-positive KB cells; assay: Inhibition of Cellular DNA Synthesis (3H-thymidine incorporation cytotoxicity assay); assay type: cell-based; settings: 2 hour pulse and 72 hour chase
Description: METHOD: Inhibition of Cellular DNA Synthesis. The compounds described herein were evaluated using an in vitro cytotoxicity assay that predicts the ability of the drug to inhibit the growth of folate receptor-positive KB cells. The compounds were comprised of folate linked to a respective chemotherapeutic drug, as prepared according to the protocols described herein. The KB cells were exposed for up to 7 h at 37° C. to the indicated concentrations of folate-drug conjugate in the absence or presence of at least a 100-fold excess of folic acid. The cells were then rinsed once with fresh culture medium and incubated in fresh culture medium for 72 hours at 37° C. Cell viability was assessed using a ^3H-thymidine incorporation assay. For compounds described herein, dose-dependent cytotoxicity was generally measurable, and in most cases, the IC50 values (concentration of drug conjugate required to reduce ^3H-thymidine incorporation into newly synthesized DNA by 50%) were in the low nanomolar range.
METHOD: In vitro test against the various cancer cell lines. Cells are heavily seeded in 24-well Falcon plates and allowed to form nearly confluent monolayers overnight. Thirty minutes prior to the addition of the test compound, spent medium is aspirated from all wells and replaced with fresh folate-deficient RPMI medium (FFRPMI). A subset of wells are designated to receive media containing 100 μM folic acid. The cells in the designated wells are used to determine the targeting specificity. […] Following one rinse with 1 mL of fresh FFRPMI containing 10% heat-inactivated fetal calf serum, each well receives 1 mL of medium containing increasing concentrations of test compound (4 wells per sample) in the presence or absence of 100 μM free folic acid as indicated. Treated cells are pulsed for 2 h at 37° C., rinsed 4 times with 0.5 mL of media, and then chased in 1 mL of fresh medium up to 70 h. Spent medium is aspirated from all wells and replaced with fresh medium containing 5 μCi/mL ^3H-thymidine. Following a further 2 h 37° C. incubation, cells are washed 3 times with 0.5 mL of PBS and then treated with 0.5 mL of ice-cold 5% trichloroacetic acid per well. After 15 min, the trichloroacetic acid is aspirated and the cell material solubilized by the addition of 0.5 mL of 0.25 N sodium hydroxide for 15 min. A 450 μL aliquot of each solubilized sample is transferred to a scintillation vial containing 3 mL of Ecolume scintillation cocktail and then counted in a liquid scintillation counter. Final tabulated results are expressed as the percentage of ^3H-thymidine incorporation relative to untreated controls.

[3] = Serum binding (30K NMWL filtration/HPLC-UV), human serum; assay type: in vitro ADME; settings: for fraction unbound: human, 50 μM test article concentration in serum, n = 3, read-out: Human Serum % Bound (converted)
Description: (§1) METHOD: Serum binding against different species. Compounds are tested with 30K NMWL, subjected to Microcon filtration (10,000 g for 30 minutes), and compounds are detected by HPLC. […] There was two times the amount of free EC0531 in serum compared to EC0305.

[4] = Serum binding (30K NMWL filtration/HPLC-UV), mouse serum; assay type: in vitro ADME; settings: 50 μM test article concentration in serum, n = 3, read-out: Mouse Serum % Bound (converted)
Description: as §1

subcutaneous KB tumors = assay: KB tumor assay, inhibition of tumor growth in mice; assay type: in vivo, nu/nu mice; settings: FIG. 3A; 0.5, 0.75, 1 μmol/kg; tolerable and highly toxic dose levels
Description: METHOD: Inhibition of Tumor Growth in Mice. Four to seven week-old mice (Balb/c or nu/nu strains) were purchased from Harlan Sprague Dawley, Inc. (Indianapolis, Ind.). Normal rodent chow contains a high concentration of folic acid (6 mg/kg chow); accordingly, mice used were maintained on the folate-free diet (Harlan diet #TD00434) for 1 week before tumor implantation to achieve serum folate concentrations close to the range of normal human serum. For tumor cell inoculation, 1×10^6 M109 cells (Balb/c strain) or 1×10^6 KB cells (nu/nu strain) in 100 μL were injected in the subcutis of the dorsal medial area. Tumors were measured in two perpendicular directions every 2-3 days using a caliper, and their volumes were calculated as 0.5×L×W^2, where L=measurement of longest axis in mm and W=measurement of axis perpendicular to L in mm. […]
METHOD: General KB Tumor Assay. The anti-tumor activity of the compounds described herein, when administered intravenously (i.v.) to tumor-bearing animals, was evaluated in nu/nu mice bearing subcutaneous KB tumors. […] Tumor growth was measured using calipers at 2-day or 3-day intervals in each treatment group. Tumor volumes were calculated using the equation V=a×b^2/2, where “a” is the length of the tumor and “b” is the width expressed in millimeters.
METHOD: Additional In vivo antitumor method. […] Survival of animals was monitored daily. […]

Structure (SMILES): CCC(C)[C@H](NC(=O)[C@H]1CCCCN1C)C(=O)N(COC(=O)CC(C)C)[C@H](C[C@@H](OC(C)=O)c1nc(C(=O)N[C@@H](Cc2ccc(O)cc2)C[C@H](C)C(=O)NNC(=O)OCCSSC[C@H](NC(=O)[C@H](CC(=O)O)NC(=O)[C@H](CCCNC(=N)N)NC(=O)[C@H](CC(=O)O)NC(=O)CC[C@H](NC(=O)c2ccc(NCc3cnc4nc(N)[nH]c(=O)c4n3)cc2)C(=O)O)C(=O)O)cs1)C(C)C (stereo partly drawn) [EC0510]
- tolerability (percent weight change) [1]: exceeded MTD
- tolerability (percent weight change) ([1]; listed as EC0310): not well tolerated

Structure (SMILES): CCC(C)[C@H](NC(=O)[C@H]1CCCCN1C)C(=O)N(COC(=O)CC(C)C)[C@H](C[C@@H](OC(C)=O)c1nc(C(=O)N[C@@H](Cc2ccc(O)cc2)C[C@H](C)C(=O)NNC(=O)OCCSSC[C@H](NC(=O)[C@H](CCC(=O)NC[C@H](O)[C@@H](O)[C@H](O)[C@H](O)CO)NC(=O)[C@H](CCC(=O)O)NC(=O)[C@H](CCC(=O)NC[C@H](O)[C@@H](O)[C@H](O)[C@H](O)CO)NC(=O)[C@H](CCC(=O)O)NC(=O)[C@H](CCC(=O)NC[C@H](O)[C@@H](O)[C@H](O)[C@H](O)CO)NC(=O)CC[C@H](NC(=O)c2ccc(NCc3cnc4nc(N)[nH]c(=O)c4n3)cc2)C(=O)O)C(=O)O)cs1)C(C)C (stereo partly drawn) [EC0543]
- cytotoxic activity in the presence of an excess of a folate-fluorescein conjugate [2]: blocked
- observed weight loss ([1]; FIG. 9, 3 μmol/kg, nu/nu mice with KB tumors): 15 to 18%

Structure (SMILES): CCCC(=O)OCN(C(=O)[C@@H](NC(=O)[C@H]1CCCCN1C)C(C)CC)[C@H](C[C@@H](OC(C)=O)c1nc(C(=O)N[C@@H](Cc2ccc(O)cc2)C[C@H](C)C(=O)NNC(=O)OCCSSC[C@H](NC(=O)[C@H](CCC(=O)NC[C@H](O)[C@@H](O)[C@H](O)[C@H](O)CO)NC(=O)[C@H](CCC(=O)O)NC(=O)[C@H](CCC(=O)NC[C@H](O)[C@@H](O)[C@H](O)[C@H](O)CO)NC(=O)[C@H](CCC(=O)O)NC(=O)[C@H](CCC(=O)NC[C@H](O)[C@@H](O)[C@H](O)[C@H](O)CO)NC(=O)CC[C@H](NC(=O)c2ccc(NCc3cnc4nc(N)[nH]c(=O)c4n3)cc2)C(=O)O)C(=O)O)cs1)C(C)C (stereo partly drawn) [EC0531]
- cytotoxic activity in the presence of an excess of a folate-fluorescein conjugate [2]: blocked
- cytotoxic activity in the presence of an excess of folic acid [2]: blocked
- fraction unbound [3]: 0.38
- amount of free conjugate in serum compared to EC0305 ([3]; serum binding assay): two times
- fraction unbound [4]: 0.503
- weight loss or major organ tissue degeneration ([1]; FIG. 4B, 1, 2, 3 μmol/kg TIW two weeks): apparent absence of weight loss or major organ tissue degeneration
- tolerability (percent weight change) [1]: well tolerated; also recorded: safe and tolerable

Structure (SMILES): CCCC(=O)OCN(C(=O)[C@@H](NC(=O)[C@H]1CCCCN1C)C(C)CC)[C@H](C[C@@H](OC(C)=O)c1nc(C(=O)N[C@@H](Cc2ccc(O)cc2)C[C@H](C)C(=O)O)cs1)C(C)C (stereo partly drawn) [tubulysin B, reference compound]
- responses (animals) (subcutaneous KB tumors): 0/5
- toxicity (percent body weight change) ([1]; mouse, in vivo): excessive toxicity

Structure (SMILES): CCC(C)[C@H](NC(=O)[C@H]1CCCCN1C)C(=O)N(COC(=O)CC(C)C)[C@H](C[C@@H](OC(C)=O)c1nc(C(=O)N[C@@H](Cc2ccc(O)cc2)C[C@H](C)C(=O)NNC(=O)OCCSSC[C@H](NC(=O)[C@H](CCC(=O)NC[C@H](O)[C@@H](O)[C@H](O)[C@H](O)CO)NC(=O)[C@H](CCC(=O)O)NC(=O)[C@H](CCC(=O)NC[C@H](O)[C@@H](O)[C@H](O)[C@H](O)CO)NC(=O)[C@H](CCC(=O)NC[C@H](O)[C@@H](O)[C@H](O)[C@H](O)CO)NC(=O)[C@H](CCC(=O)O)NC(=O)[C@H](CCC(=O)NC[C@H](O)[C@@H](O)[C@H](O)[C@H](O)CO)NC(=O)CC[C@H](NC(=O)c2ccc(NCc3cnc4nc(N)[nH]c(=O)c4n3)cc2)C(=O)O)C(=O)O)cs1)C(C)C (stereo partly drawn) [EC0533]
- cytotoxic activity in the presence of an excess of a folate-fluorescein conjugate [2]: blocked

Structure (SMILES): CCCC(=O)OCN(C(=O)[C@@H](NC(=O)[C@H]1CCCCN1C)C(C)CC)[C@H](C[C@@H](OC(C)=O)c1nc(C(=O)N[C@@H](Cc2ccc(O)cc2)C[C@H](C)C(=O)NNC(=O)OCCSSC[C@H](NC(=O)[C@H](CCC(=O)NC[C@H](O)[C@@H](O)[C@H](O)[C@H](O)CO)NC(=O)[C@H](CCC(=O)O)NC(=O)[C@H](CCC(=O)NC[C@H](O)[C@@H](O)[C@H](O)[C@H](O)CO)NC(=O)[C@H](CCC(=O)NC[C@H](O)[C@@H](O)[C@H](O)[C@H](O)CO)NC(=O)[C@H](CCC(=O)O)NC(=O)[C@H](CCC(=O)NC[C@H](O)[C@@H](O)[C@H](O)[C@H](O)CO)NC(=O)CC[C@H](NC(=O)c2ccc(NCc3cnc4nc(N)[nH]c(=O)c4n3)cc2)C(=O)O)C(=O)O)cs1)C(C)C (stereo partly drawn) [EC0530]
- cytotoxic activity in the presence of an excess of a folate-fluorescein conjugate [2]: blocked

Structure (SMILES): CCCC(=O)OCN(C(=O)[C@@H](NC(=O)[C@H]1CCCCN1C)C(C)CC)[C@H](C[C@@H](OC(C)=O)c1nc(C(=O)N[C@@H](Cc2ccc(O)cc2)C[C@H](C)C(=O)NNC(=O)OCCSSC[C@H](NC(=O)[C@H](CC(=O)O)NC(=O)[C@H](CCCNC(=N)N)NC(=O)[C@H](CC(=O)O)NC(=O)CC[C@H](NC(=O)c2ccc(NCc3cnc4nc(N)[nH]c(=O)c4n3)cc2)C(=O)O)C(=O)O)cs1)C(C)C (stereo partly drawn) [EC0305]
- fraction unbound [3]: 0.207
- fraction unbound [4]: 0.362
- tolerability (percent weight change) [1]: not well tolerated; also recorded: exceeded MTD
